# In PMC12298754:
# How the values were obtained:
# [1] = target: PD-L1 protein on 4T1 cells (programmed cell death ligand-1) (mouse (endogenous in 4T1)) (UniProt Q9EP73); assay: radioligand binding; competition on 4T1 cells adhered to 96-well plates, 37 °C, 1 h; [18F]AlF-NOTA-iPD-L1 constant at 1 ng/20 kBq; unlabeled peptides 10 to 0.00001 mM; washed with pH 7.4 buffer (0.1% BSA, 25 mM Tris-HCl, 1 mM CaCl2, 120 mM NaCl); corrected for non-specific binding with …; n = 3
# [2] = target: PD-L1 protein on 4T1 cells (programmed cell death ligand-1) (mouse (endogenous in 4T1)) (UniProt Q9EP73)
# UniProt Q9EP73, sequence (Q9EP73 19-290): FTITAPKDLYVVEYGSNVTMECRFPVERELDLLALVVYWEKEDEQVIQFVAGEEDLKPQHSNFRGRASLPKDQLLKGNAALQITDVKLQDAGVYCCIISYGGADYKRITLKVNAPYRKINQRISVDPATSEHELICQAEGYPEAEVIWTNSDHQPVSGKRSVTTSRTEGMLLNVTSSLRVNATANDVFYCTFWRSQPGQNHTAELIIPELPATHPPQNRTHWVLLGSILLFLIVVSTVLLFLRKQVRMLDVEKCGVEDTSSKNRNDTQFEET
Substance,IC50 [1] [nM],tumor uptake at 1 h in mice with 4T1 tumors that received a blocking dose of cold iPD-L1 30 min before (% ID/g) [2] [% ID/g],"tumor uptake in mice with induced PD-L1-positive 4T1 tumors, 1, 2 and 3 h after injection (% ID/g) [2] [% ID/g]"
AlCl-NOTA-iPD-L1 (peptide),9.27,,
[18F]AlF-NOTA-iPD-L1 (peptide),,1.81,6.54
WL12 (peptide),6.08,,
